Target: MaMADS36 (Musa spp. (banana), UniProt A0ACE1XRG1 54-288)
Test: EMSA; Not given in material; EMSA according to Liu et al. [22]
Conditions: protein: recombinant; chain copies: 2

Sequence of MaMADS36 (A0ACE1XRG1 entry or part of it): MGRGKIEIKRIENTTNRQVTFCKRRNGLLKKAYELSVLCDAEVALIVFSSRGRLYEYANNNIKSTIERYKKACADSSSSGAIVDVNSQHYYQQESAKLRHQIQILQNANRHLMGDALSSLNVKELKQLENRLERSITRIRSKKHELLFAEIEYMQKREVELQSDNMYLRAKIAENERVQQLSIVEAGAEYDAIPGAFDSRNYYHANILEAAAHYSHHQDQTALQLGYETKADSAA

B1: MaACS7 promoter C(A/T)rG probe (dsDNA)
DNA 1: GTTTCTTTTTTGGT
DNA 2: ACCAAAAAAGAAAC
Question: Does B1 bind?
Answer: binds

Source: publication PMC11878764, “MaEIL4-MaMADS36-MaACS7 module transcriptionally regulates ethylene biosynthesis during banana fruit ripening”
